Assay results published in patent publication US20240210401A1, “METHOD OF USING PACAP AND VIP PEPTIDES FOR DETECTING SHED OR CIRCULATING TUMOR CELLS IN BIOLOGICAL FLUIDS” (Thomas Jefferson University, priority 2013, published 2024).

Target: T1, VPAC1 receptors expressed on the cell membrane of prostate cancer cells (Homo sapiens, UniProt P32241)
T1 construct: VPAC1 receptors expressed on the cell membrane of prostate cancer cells; endogenous in cells; host or cells: prostate cancer cells cytospun from patients' urine
T1 sequence (P32241 31-457): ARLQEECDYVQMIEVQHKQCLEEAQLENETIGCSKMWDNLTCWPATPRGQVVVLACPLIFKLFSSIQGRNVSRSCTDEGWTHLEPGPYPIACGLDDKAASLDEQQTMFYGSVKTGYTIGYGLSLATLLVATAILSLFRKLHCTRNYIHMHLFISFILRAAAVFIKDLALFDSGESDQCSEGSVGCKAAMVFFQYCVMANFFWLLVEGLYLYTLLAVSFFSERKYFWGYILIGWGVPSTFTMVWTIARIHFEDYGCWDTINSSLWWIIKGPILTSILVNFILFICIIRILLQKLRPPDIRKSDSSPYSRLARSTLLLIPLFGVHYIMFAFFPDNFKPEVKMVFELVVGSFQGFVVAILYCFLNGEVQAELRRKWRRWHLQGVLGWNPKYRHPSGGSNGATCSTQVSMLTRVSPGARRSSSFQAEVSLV
Experiment: Confocal imaging of cells from urine samples of prostate cancer patients
Format: cell-based
Description: The PACAP peptide, […]γAba-Lys (R) (SEQ ID NO: 7), was synthesized on a Wang resin using an ABI 341A peptide synthesizer (Applied Biosystems, Foster City, CA). The 27-amino acid long PACAP sequence was then assembled by standard Fmoc chemistry and coupled with a free sulfhydryl group attached to the C-terminus. This C-terminal sulfhydryl group was then reacted with a maleimide functionalized NIR dye to yield TP4303.
Urine samples from two patients, one with early phase prostate cancer and the other with advanced prostate cancer, were cytospinned, and cells were collected on glass slides. The cells were incubated with TP4303, washed with phosphate-buffered saline (PBS) and the slide was dried. The cells were treated with DAPI (4′,6-diamidino-2-phenylindole, a fluorescent stain that binds strongly to A-T rich regions in cellular DNA), a cover slip was placed on the sample and confocal microscopic analysis was performed (excitation, […]; emission, […]).

interaction with epithelial cells (epithelial cells in the urine samples, identified by DAPI, not expressing VPAC1): did not interact
interaction with sperm (sperm in the urine sample, identified by DAPI, not expressing VPAC1): did not interact
binding to VPAC1 receptors on prostate cancer cells (urine of two patients (early phase and advanced prostate cancer), confocal microscopy): bound
Substance: His-Ser-Asp-Gly-Ile-Phe-Thr-Asp-Ser-Tyr-Ser-Arg-Tyr-Arg-Lys-Gln-Met-Ala-Val-Lys-Lys-Tyr-Leu-Ala-Ala-Val-Leu-γAba-Lys (R) (SEQ ID NO: 7) (HSDGIFTDSYSRYRKQMAVKKYLAAVLEK; maleimide NIR dye conjugated via C-terminal sulfhydryl; MOD_RES 28 4Abu) [TP4303, PACAP peptide with C-terminal sulfhydryl group reacted with a maleimide functionalized NIR dye]
